Here are results for three molecules from PMC6149797, “Rational Engineering of a Flavoprotein Oxidase for Improved Direct Oxidation of Alcohols to Carboxylic Acids” (Molecules : A Journal of Synthetic Chemistry and Natural …, 2017).

What is called Km is the substrate concentration at which the rate is half of its maximum. What is called kcat is the maximal rate divided by the concentration of active sites. For orientation: kcat/Km means the turnover number divided by the Michaelis constant.

For series [1], the system named is T1, O=[N+]([O-])c1ccc(CO)cc1.
T1 construct: N-terminal His-SUMO fusion (Champion pET SUMO), tag not cleaved; E. coli BL21(DE3)
The series is described as follows: coupled HRP H2O2 assay, Michaelis-Menten. The note with it: O2 (co-substrate), 100 mM sodium phosphate pH 7.0, 30 °C. Format: biochemical, Methylovorus sp. MP688. An excerpt:
(§1) coupled HRP H2O2 assay, Michaelis-Menten on 5-(hydroxymethyl)furfural oxidase (HMFO)

For series [2], the system named is T2, O=Cc1ccc([N+](=O)[O-])cc1.
T2 construct: N-terminal His-SUMO fusion (Champion pET SUMO), tag not cleaved; E. coli BL21(DE3)
The series is described as follows: coupled HRP H2O2 assay, Michaelis-Menten. Format: biochemical, Methylovorus sp. MP688. The conditions noted are these: O2 (co-substrate), 100 mM sodium phosphate pH 7.0, 30 °C, aldehyde oxidised via its gem-diol hydrate.
Source text: as §1

Substrate in series [3]: O=[N+]([O-])c1ccc(CO)cc1
The series is described as follows: purified protein. The note with it: O2 (co-substrate), 100 mM sodium phosphate pH 7.0, 30 °C.

Substrate in series [4]: O=Cc1ccc([N+](=O)[O-])cc1
The series is described as follows: coupled HRP H2O2 assay, Michaelis-Menten. Type of series: biochemical, Methylovorus sp. MP688. The conditions noted are these: O2 (co-substrate), 100 mM sodium phosphate pH 7.0, 30 °C, aldehyde oxidised via its gem-diol hydrate.
Source text: as §1

Regarding “5-(hydroxymethyl)furfural oxidase (HMFO) (Methylovorus sp. MP688; V465T)”, in series [1], the Michaelis constant (Km) came out at 0.03 mM, the turnover number (kcat) was found to be 1.7 s⁻¹ and the kcat/Km was 57000 M⁻¹ s⁻¹.

On to “5-(hydroxymethyl)furfural oxidase (HMFO) (Methylovorus sp. MP688; W466H)”, for which, in series [2], the Km stood at 0.16 mM, the kcat was 0.003 s⁻¹ and the kcat/Km came out at 20 M⁻¹ s⁻¹. In series [1], the Michaelis constant (Km) turned out to be 0.40 mM, the catalytic constant (kcat) is 0.02 s⁻¹ and the specificity constant (kcat/Km) amounted to 50 M⁻¹ s⁻¹.

B1: 5-(hydroxymethyl)furfural oxidase (HMFO) (Methylovorus sp. MP688) (protein)
chain: MTDTIFDYVIVGGGTAGSVLANRLSARPENRVLLIEAGIDTPENNIPPEIHDGLRPWLPRLSGDKFFWPNLTIHRAAEHPGITREPQFYEQGRLLGGGSSVNMVVSNRGLPRDYDEWQALGADGWDWQGVLPYFIKTERDADYGDDPLHGNAGPIPIGRVDSRHWSDFTVAATQALEAAGLPNIHDQNARFDDGYFPPAFTLKGEERFSAARGYLDASVRVRPNLSLWTESRVLKLLTTGNAITGVSVLRGRETLQVQAREVILTAGALQSPAILLRTGIGPAADLHALGIPVLADRPGVGRNLWEHSSIGVVAPLTEQARADASTGKAGSRHQLGIRASSGVDPATPSDLFLHIGADPVSGLASAVFWVNKPSSTGWLKLKDADPFSYPDVDFNLLSDPRDLGRLKAGLRLITHYFAAPSLAKYGLALALSRFAAPQPGGPLLNDLLQDEAALERYLRTNVGGVWHASGTARIGRADDSQAVVDKAGRVYGVTGLRVADASIMPTVPTANTNLPTLMLAEKIADAILTQA
notes: N-terminal His-SUMO fusion (Champion pET SUMO), tag not cleaved; E. coli BL21(DE3)
As to B1, in series [3], the Km worked out at 0.26 mM, the kcat turned out to be 7.4 s⁻¹ and the catalytic efficiency (kcat/Km) stood at 28000 M⁻¹ s⁻¹. Moreover, in series [4], the Km stood at 0.31 mM, the turnover number (kcat) was 0.3 s⁻¹ and the kcat/Km was 970 M⁻¹ s⁻¹.
